Test results from publication PMC6125409.
Like-named read-outs stand apart in the source and are kept apart here.

Columns and labels:
[1] = target: EpCAM ECD (Homo sapiens) (UniProt P16422); details: cited from earlier work
[2] = target: EpCAM ECD (Homo sapiens) (UniProt P16422); details: cited from earlier work; remark: listed apart in the source
[3] = target: mCherry-EpFL (N-terminal fusion of mCherry to full-length EpCAM) (UniProt P16422); test: FRET or BRET; FLIM-FRET, donor sfGFP and acceptor mCherry both N-terminal on EpFL, co-transfected in the same cell (cis; GFPEX/CherryEX), equimolar plasmids; HEK 293 T and HCT8 #L13 cells, fixed; whole cell membrane region

For “EpCAM cis-dimer ECD (from UniProt P16422)”, the Kd [1] is given as 0.01 µM.

In the case of “EpCAM trans-tetramer (dimer-dimer) ECD (from UniProt P16422)”, the Kd [2] is given as 10 µM.

Work on “sfGFP-EpFL (N-terminal fusion of sfGFP to full-length EpCAM) (from UniProt P16422 24-314) (receptor)” yielded an average donor fluorescence lifetime [3] of 1.6 ns.
